The series deals with the molecule itself. Briefly: cryo-EM structure.

B1: E. coli MsbA (natural protein)
chain: MHNDKDLSTWQTFRRLWPTIAPFKAGLIVAGVALILNAASDTFMLSLLKPLLDDGFGKTDRSVLVWMPLVVIGLMILRGITSYVSSYCISWVSGKVVMTMRRRLFGHMMGMPVSFFDKQSTGTLLSRITYDSEQVASSSSGALITVVREGASIIGLFIMMFYYSWQLSIILIVLAPIVSIAIRVVSKRFRNISKNMQNTMGQVTTSAEQMLKGHKEVLIFGGQEVETKRFDKVSNRMRLQGMKMVSASSISDPIIQLIASLALAFVLYAASFPSVMDSLTAGTITVVFSSMIALMRPLKSLTNVNAQFQRGMAACQTLFTILDSEQEKDEGKRVIERATGDVEFRNVTFTYPGRDVPALRNINLKIPAGKTVALVGRSGSGKSTIASLITRFYDIDEGEILMDGHDLREYTLASLRNQVALVSQNVHLFNDTVANNIAYARTEQYSREQIEEAARMAYAMDFINKMDNGLDTVIGENGVLLSGGQRQRIAIARALLRDSPILILDEATSALDTESERAIQAALDELQKNRTSLVIAHRLSTIEKADEIVVVEDGVIVERGTHNDLLEHRGVYAQLHKMQFGQ
On to B1, for which the stoichiometry N (as a rule, a count of units in the complex or per binding partner) was determined as 2.

Values taken from article PMC5759761 (Nature, 2017).
